Assay results taken from US20170081411A1 (published 2017).
Changes are numbered by the printed parent chain. In names and notes the source's numbering stands.

B1: His-FLAG-FRB (wild-type FRB) (other)
chain: MGHHHHHHHHGSDYKDDDDKGSASRILWHEMWHEGLEEASRLYFGERNVKGMFEVLEPLHAMMERGPQTLKETSFNQAYGRDLMEAQEWCRKYMKSGNVKDLTQAWDLYYHVFRRISKTS
notes: His and FLAG tags are part of the entry; also called wild type Flag-FRB
B2: His-FLAG-FRB T2098L (other)
chain: B1 chain with T103L
notes: The entry already carries the mutation and the tags; also called T2098L (FLAG tagged)
B3: His-FLAG-FRB E2032I (other)
chain: B1 chain with E37I
notes: The entry already carries the mutation and the tags; also called E2032I (FLAG tagged)
B4: His-FLAG-FRB E2032L (other)
chain: B1 chain with E37L
notes: The entry already carries the mutation and the tags; also called E2032L (FLAG tagged)

Legend:
[1] = biological target: T1, His-Avidin-FKBP (wild-type FKBP) (biotinylated (position not given)); assay: AlphaLISA direct format: 30 nM biotinylated FKBP + 30 nM FLAG-FRB, everolimus titrated 1:3 from 600 nM (EC50 is of the everolimus titration)
T1 construct: His tag and biotin acceptor tag are part of the entry; also called biotinylated wild-type FKBP; biotinylated FKBP
Method: (§1) FRB mutations were also ranked in an alternative assay format. […] All dilutions were made in 1× AlphaLISA Immunoassay buffer (PerkinElmer). Anti-Flag acceptor beads (PerkinElmer) were added at 10 ug/ml final concentration and incubated for one hour at room temperature. Streptavidin donor beads (PerkinElmer), were then added at a final concentration of 40 ug/ml and the plate was protected from light and incubated for 30 minutes at room temperature. The plate was then read on the PerkinElmer EnVision Multiplate reader equipped with the Alpha Module using excitation of 680 nm and a 570 nm Emission filter.

[2] = biological target: T1, His-Avidin-FKBP (wild-type FKBP); assay: AlphaLISA direct format, everolimus titrated, EC50 against wild type FRB
Method: as §1

T1 sequence (chain, as listed by the source limits assumed): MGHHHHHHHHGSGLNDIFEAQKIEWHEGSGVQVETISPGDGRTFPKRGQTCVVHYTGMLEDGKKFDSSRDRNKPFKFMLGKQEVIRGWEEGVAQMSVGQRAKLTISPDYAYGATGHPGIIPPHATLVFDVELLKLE

Row | Binder | EC50 [1] [nM] | fold improved against wild type FRB [2] [fold]
1 | B1 | 3.9 | 
2 | B2 | 1.44 | 3
3 | B3 | 2.46 | 
4 | B4 | 2.15 | 
